Assays:
Test in all cases: EIA, captured mAb
[1] = target: biotinylated HCV core peptide 134-154 (Peptide 1) (HCV-1)
[2] = target: biotinylated HCV core peptide 151-171 (Peptide 3) (HCV-1)
[3] = target: biotinylated HCV core peptide 141-161 (Peptide 2) (HCV-1)

Row | Binder | Reactivity (OD492) [1] [OD] | Reactivity (OD492) [2] [OD] | Reactivity (OD492) [3] [OD]
1 | HCV 208A-1064 (antibody, V domains shown) VH: EVQLQQSGPELVKPGASVKISCKTSGYTFTEYAMHWMKQSHGKSLEWIGGINPTNGDTIYNQKFKDKAKLTVDRSSSTAYMELRSLTSDDSALFYCARRELDYFASWGQGTTLTVSS VL: DIVLTQSPASLIVSLGQTATISCRASQSVSTSRFSYLHWIQQKPGQPPKLLIKYASNLESGVPVRFSGSGSGTDFTLNIHPVEEEDTATYFCQHSWEFPFTFGSGTKLKIKR | 0.1 | 0.12 | 3.5
2 | HCV 208A-222 (antibody, V domains shown) VH: EVQLQQSGPELEKPGASVRISCKTSGYTFTEYAMHWVKQSHGKSLEWIGGINPNNGNAIYNQIFKDKATLTVDRSSSTAYMGLRSLTFGDSGVYFCVRRQLDYFDYWGQGASLTVSS VL: DIVVTQSPASLAVSLGQRATISCRASQSVSTSRYSYLHWYQQKPGQPPKLLIKYASNLESGVPARFSGSGSGTDFTLNIHPVGEEDTATYYCQHSWEFPFTFGSGTKLEIKR | 0.06 | 0.08 | 2.7
3 | HCV 208A-293 (antibody, V domains shown) VH: EVQLQQSGPELVKPGASVKISCKASGFTFTEYAMHWMKQSHGKSLEWIGGINPTNGDAIYNQKFKDKAKLTVDRSSSTAYMELRSLTSDDSALFYCARRELDYFPSWGQGTTLTVSS VL: DIVLTQSPASLIVSLGQRATISCRASQSVSTSRFSYVHWIQQKPGQPPKLLIKYASNLESGVPVRFSGSGSGTDFILNIHPVEEEDTATYFCQHSWEFPFTFGSGTKLEIKR | 0.08 | 0.11 | 2.42
4 | HCV 208A-126 (antibody, V domains shown) VH: QLQQSGPVLVKPGASVMISCKTSGYTFTENAMHWVKQSHGKSLEWIGGVNPNNGDTIFNQKFKGKATLTVDKSSNTAFTELRSLPSEESTVYYCVRRGLDFFDYWGQGTSVTVSS VL: DIVLTQSPASLAVSLGQRATISCRASQSVSTSRYSYMHWYQQKPGQPPKLLIKYASNLESGVPARFSGSGSGTDFTLNIHPVAEEDTAAYYCQHSWEFPFTFGSGTKLEIKR | 0.2 | 0.1 | 2.08
5 | HCV 208A-605 (antibody, V domains shown) VH: EVQLQQSGPELEKPGASVKISCKTSGYTFTEYAIHWVKQSHGMSLEWIGGINPSNGNAIYNQIFKDKATLTVDRSSSTAYMGLRSLTFGDSGVYFCVRRQLDFFDYWGQGASLTVSS VL: DIVVTQSPASLAVSLGQRATISCRASQSVSTSRYSYLHWYQQKPGQPPKLLIKYASNLESGVPARFSGSGSGTDFTLNIHPVGEEDTATYYCQHSWEFPFTFGSGTKLEIKR | 0.22 | 0.16 | 3.71
6 | HCV 208A-133 (antibody, V domains shown) VH: QLQQSGPVLVGPGASVMISCKTSGYTFTENAMHWVEQSHGKSLEWIGGVNPNNGDTIFNQKFKGKATLTVDKSSSTAFMEFRSLTSEESTVYYCVRRELDFFDYWGQGTSVTVSS VL: DIVLTQSPASLAVSLGQRATISCRASQSVSTSRYSYMHWYQQKPGQPPKLLIKYASNLESGVPARFSGSGSGTDFTLNIHPVAEEDTATYYCQHSWEFPFTFGSGTKLEIKR | 0.1 | 0.13 | 3.68
7 | HCV 208A-159 (antibody, V domains shown) VH: QLQQSGPAQVKPGASVMISCKTSGYTFTENAMHWVKQSHGKSLEWIGGVNPNNGDTIFNQKFKDKAALTVDKSSSTAFMELRSLTSEESTVYYCVRRELDFFDYWGQGTSVTVSS VL: DIVLTQSPASLAVSLGQRATISCRASQSVSTSRYSYVHWYQQKPGQPPKLLIKYAANLESGVPARFSGSGSGTDFTLNIHPVAEEDAAAYYCQHSWEFPFTFGSGTKLEIKR | 0.15 | 0.19 | 3.77
8 | HCV 208A-422 (antibody, V domains shown) VH: DVQLQESGPGLVNPSQSLSLTCSVTGYSITSGYYWIWIQQSPGNKLEWMGYIKYDGGNNYSPSLKNRISIARDTSKNQCFLKLNSVTIEDTATYYCTRGSDSFDYWGQGTTLTVSS VL: DIVLTQSPASLAVSLGQRAIISCKASQSVSFAGTNLMHWYQQKPGQQPKLLIYRASNLETGVPTRFSGSGSRTDFTLNIHPVEEDDAATYYCQQSREYYTFGGGTKLEIKR | 0.05 | 0.1 | 0.84
9 | HCV 208A-442 (antibody, V domains shown) VH: DVQLQESGPGLVNPSQSLSLTCSVTGYSITSGYYWIWIRQFPGNKLEWMGYIKYDGGNNYSPSLKNRISIARDTSKNQFFLKLNSVTIEDTATYYCTRGSDSFDYWGQGTTLTVSS VL: DIVLTQSPASLAVSLGQRAIISCKASQSVSFAGTNLMHWYQQKPGQQPKLLIYRASNLETGVPTRFSGSGSRTDFTLNIHPVEEDDAATYYCQQSREYYTFGGGTKLEIKR | 0.08 | 0.06 | 3.04
10 | HCV 208A-207 (antibody, V domains shown) VH: QGQLQQPGAEFVKPGASLKLSCRASGYTFTSYWIHWVKQRPGQGLEWIGEIDPSDSYINQNQKFRGKATLTVDKSSSTAYMELSGLTSEDSAVYYCARHYYGVLDSWGQGTTLTVSS VL: DIVLTQSPATLSVTPGDRVSLSCRASQRIYNYLHWYQQKSHESPRLLTKYASQSISGIPSRFSGSGSGTDFILTINSVETEDFGMYFCQQSNSWPLTFGAGTKLELRR | 1.24 | 0.08 | 0.17
11 | HCV 208A-134 (antibody, V domains shown) VH: QGQMQQSGAELAKPGASVKLSCKTSGFTFSSSYISWLKQKPGQSLEWIAWIYAGTGNTNYNQKFTDKAQLTVDTSSSTAYMQLSSLTTEDSAIYYCAISGTGFTYWGQGTLVTVSA VL: EVLMTQSPLSLPVSLGDQASISCRSSQSLEHTNGNTYLEWFLQRPGQPPKLLIYKVSSRFSGVPDRFSGSGSGTDFTLKISRVEAEDLGVYYCFQGSHVPFTFGSGTKLAIKR | 2.06 | 0.06 | 0.08
12 | HCV 208A-557 (antibody, V domains shown) VH: QGQMQQSGAELVKPGASVKLSCKTSGFTFSSSYISWLKQKPGQSLEWIAWIYAGTGNTNYNQKFTDKAQLTVDTSSSTAYMQLSSLTTEDSAIYYCAISGTGFTYWGQGTLVTVSA VL: DIALTQSPASLAVSLGQRATISCRASQSVSTSRYSYMHWYQQKPGQPPELLIKYASNLESGVPARFSGSGSGTDFTLNIHPVGEEDTATYYCQHSWDFPFTFGSGTKLEIKR | 0.05 | 0.06 | 2.41
13 | HCV 208A-352 (antibody, V domains shown) VH: QGQMQQSGAELVKPGASVKLSCKTSGFTFSSSFISWLKQKPGQSLEWIAWIYAGTGNTNYNQKFTDKAQLTVDTSSSTAYMQFSSLTTEDSAIYYCAISGTGFTYWGQGTLVTVSA VL: DVLMAQTPLSLPVTLGDQASISCRSSQSLVHSNGNTYLEWFLQKPGQSPKLLIYNVSNRFSGVPDRFSGSGSGTDFTLKISRVEAEDLGVYYCFQGSHVPLTFGSGTKLEIKR | 1.08 | 0.06 | 0.07
14 | HCV 208A-210 (antibody, V domains shown) VH: QVQLQQSGPELVKPGASMRISCKASGYTFTSYYVHWIKQRPGQGLEWIGCIYPGDVNTDYNEKFKGKATLTADKSSSTAYMQVSTLTSEDSAIYFCVLYYYGSFAYWGQGTLVTVSA VL: EIVLTQSPAITAASLGQNVTITCRASSSVSYMHWYRQKSGTSPQLWIYEISRRASGVPARFRASGSGTSYSLTISSMEAEDAAIYYCQQWNYPLTFGAGTKLEVKR | 0.06 | 0.05 | 1.15
